What all share (test): cell-based or functional assay
The target in test [1] is T1, human dopamine D1 receptor (human, UniProt P21728 1-446).
Test [2] deals with T2, human GALR1 receptor (human, UniProt P47211 1-349).
T2 sequence (looked up): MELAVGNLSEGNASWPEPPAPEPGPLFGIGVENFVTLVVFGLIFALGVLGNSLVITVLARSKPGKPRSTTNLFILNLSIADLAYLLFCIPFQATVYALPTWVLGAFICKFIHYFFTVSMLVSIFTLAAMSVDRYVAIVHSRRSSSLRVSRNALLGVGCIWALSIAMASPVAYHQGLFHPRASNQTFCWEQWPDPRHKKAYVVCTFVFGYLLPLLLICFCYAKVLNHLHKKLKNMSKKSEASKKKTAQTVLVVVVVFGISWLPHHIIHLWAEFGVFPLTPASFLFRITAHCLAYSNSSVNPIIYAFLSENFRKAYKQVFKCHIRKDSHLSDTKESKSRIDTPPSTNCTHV

The target of test [3] is human kappa opioid receptor (human, UniProt P41145 1-380).
human kappa opioid receptor, sequence (P41145 whole entry): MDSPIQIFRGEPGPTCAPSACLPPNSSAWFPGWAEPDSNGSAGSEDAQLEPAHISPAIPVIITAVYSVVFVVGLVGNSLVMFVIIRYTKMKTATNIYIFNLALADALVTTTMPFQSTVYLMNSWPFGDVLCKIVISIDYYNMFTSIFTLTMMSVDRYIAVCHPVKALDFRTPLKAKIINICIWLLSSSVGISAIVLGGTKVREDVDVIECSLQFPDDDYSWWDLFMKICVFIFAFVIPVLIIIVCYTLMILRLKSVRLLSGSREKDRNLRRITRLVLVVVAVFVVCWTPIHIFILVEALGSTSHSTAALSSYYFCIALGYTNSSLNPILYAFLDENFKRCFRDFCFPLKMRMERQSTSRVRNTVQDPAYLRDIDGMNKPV
Test [4] has as its target rat Y4 receptor (rat, UniProt Q63447 1-375).
Test [5] deals with human NPFF1 receptor (human, UniProt Q9GZQ6 1-430).
human NPFF1 receptor, sequence (Q9GZQ6 whole entry): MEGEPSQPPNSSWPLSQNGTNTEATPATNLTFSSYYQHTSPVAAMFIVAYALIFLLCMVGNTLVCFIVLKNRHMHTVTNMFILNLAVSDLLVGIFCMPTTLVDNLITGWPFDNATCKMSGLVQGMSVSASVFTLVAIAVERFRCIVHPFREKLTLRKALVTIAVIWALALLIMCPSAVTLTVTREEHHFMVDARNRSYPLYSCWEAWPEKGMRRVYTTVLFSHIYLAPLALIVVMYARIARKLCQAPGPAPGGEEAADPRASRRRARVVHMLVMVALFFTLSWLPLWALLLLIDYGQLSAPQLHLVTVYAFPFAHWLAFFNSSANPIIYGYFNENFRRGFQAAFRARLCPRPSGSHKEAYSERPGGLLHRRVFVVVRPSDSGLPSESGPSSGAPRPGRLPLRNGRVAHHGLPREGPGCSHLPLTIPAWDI
For test [6], the target named is T3, human 5HT1A receptor (human, UniProt P08908 1-422).
T3 sequence (looked up): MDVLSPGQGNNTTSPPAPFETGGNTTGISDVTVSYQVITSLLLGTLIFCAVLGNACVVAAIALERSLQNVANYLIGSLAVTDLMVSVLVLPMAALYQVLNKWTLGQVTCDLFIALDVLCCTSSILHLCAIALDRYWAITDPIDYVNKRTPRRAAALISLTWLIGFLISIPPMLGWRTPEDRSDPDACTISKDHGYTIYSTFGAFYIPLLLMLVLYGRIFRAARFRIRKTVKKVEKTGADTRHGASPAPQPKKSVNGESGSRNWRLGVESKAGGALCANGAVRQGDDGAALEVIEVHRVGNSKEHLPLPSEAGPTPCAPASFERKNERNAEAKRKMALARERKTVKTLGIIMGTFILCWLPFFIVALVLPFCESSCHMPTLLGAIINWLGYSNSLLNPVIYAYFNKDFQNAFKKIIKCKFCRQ

The target in test [7] is human 5HT1D receptor (human, UniProt P28221 1-377).
human 5HT1D receptor, sequence (P28221 whole entry): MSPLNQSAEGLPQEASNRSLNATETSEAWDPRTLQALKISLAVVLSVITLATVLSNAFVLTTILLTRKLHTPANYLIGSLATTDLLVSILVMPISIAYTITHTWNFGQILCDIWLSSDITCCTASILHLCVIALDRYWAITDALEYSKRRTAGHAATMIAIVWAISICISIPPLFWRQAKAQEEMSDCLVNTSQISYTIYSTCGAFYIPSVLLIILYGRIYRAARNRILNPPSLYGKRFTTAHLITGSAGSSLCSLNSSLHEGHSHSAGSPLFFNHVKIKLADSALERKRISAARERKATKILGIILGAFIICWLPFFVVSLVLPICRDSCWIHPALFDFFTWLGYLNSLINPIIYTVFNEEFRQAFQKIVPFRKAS
In test [8] the target is mouse 5HT5B receptor (mouse, UniProt P31387 1-370).
mouse 5HT5B receptor, sequence (P31387 whole entry): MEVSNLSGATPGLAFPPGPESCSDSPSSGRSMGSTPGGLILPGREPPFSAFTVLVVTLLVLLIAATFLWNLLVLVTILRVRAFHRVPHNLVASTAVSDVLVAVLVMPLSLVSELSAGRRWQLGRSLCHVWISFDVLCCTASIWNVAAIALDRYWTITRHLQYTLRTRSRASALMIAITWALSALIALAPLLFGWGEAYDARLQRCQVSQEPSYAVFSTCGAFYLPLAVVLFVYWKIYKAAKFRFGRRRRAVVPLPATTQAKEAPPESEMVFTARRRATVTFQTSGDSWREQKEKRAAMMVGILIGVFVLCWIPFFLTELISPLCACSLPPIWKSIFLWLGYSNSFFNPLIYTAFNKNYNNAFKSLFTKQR
Test [9] deals with human GLP-1 receptor (human, UniProt P43220 24-463).
Test [10] addresses human Y4 receptor (human, UniProt P50391 1-375).
In test [11] the target is T1, human dopamine D1 receptor. The source holds these as a separate data set.
Test [12] deals with T4, human GALR2 receptor (human, UniProt O43603 1-387).
T4 sequence (looked up): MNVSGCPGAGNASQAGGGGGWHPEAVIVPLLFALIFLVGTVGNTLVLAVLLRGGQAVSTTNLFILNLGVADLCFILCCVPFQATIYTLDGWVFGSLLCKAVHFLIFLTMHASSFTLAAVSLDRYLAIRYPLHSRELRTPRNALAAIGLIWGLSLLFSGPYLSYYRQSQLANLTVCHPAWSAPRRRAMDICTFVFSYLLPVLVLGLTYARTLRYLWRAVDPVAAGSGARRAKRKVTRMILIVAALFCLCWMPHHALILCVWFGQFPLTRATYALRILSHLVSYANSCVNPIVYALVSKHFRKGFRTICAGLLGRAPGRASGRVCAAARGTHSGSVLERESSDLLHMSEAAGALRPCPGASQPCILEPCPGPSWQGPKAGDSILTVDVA

rat Y4 receptor, sequence (Q63447 whole entry): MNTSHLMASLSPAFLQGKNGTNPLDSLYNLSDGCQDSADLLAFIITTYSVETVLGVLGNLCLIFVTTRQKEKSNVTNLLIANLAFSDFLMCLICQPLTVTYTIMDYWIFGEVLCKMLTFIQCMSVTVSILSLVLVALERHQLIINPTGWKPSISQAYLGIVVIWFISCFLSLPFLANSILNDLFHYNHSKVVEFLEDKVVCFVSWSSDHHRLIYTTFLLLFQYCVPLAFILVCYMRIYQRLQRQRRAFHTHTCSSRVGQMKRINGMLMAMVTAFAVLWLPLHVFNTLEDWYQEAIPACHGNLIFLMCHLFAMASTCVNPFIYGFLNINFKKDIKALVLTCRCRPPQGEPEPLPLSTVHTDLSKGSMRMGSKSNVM
T1 sequence (P21728 whole entry): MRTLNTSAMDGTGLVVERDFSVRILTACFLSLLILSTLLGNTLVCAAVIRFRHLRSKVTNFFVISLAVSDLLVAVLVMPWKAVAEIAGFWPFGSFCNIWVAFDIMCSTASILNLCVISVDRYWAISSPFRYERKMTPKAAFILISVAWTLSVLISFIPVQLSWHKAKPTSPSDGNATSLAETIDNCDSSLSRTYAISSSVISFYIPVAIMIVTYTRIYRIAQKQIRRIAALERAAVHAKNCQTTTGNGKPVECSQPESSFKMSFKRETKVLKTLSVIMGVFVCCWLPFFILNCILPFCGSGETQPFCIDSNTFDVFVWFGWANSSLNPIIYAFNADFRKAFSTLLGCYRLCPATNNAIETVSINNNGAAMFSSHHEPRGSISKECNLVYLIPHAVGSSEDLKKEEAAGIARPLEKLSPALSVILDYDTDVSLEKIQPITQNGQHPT
human Y4 receptor, sequence (P50391 whole entry): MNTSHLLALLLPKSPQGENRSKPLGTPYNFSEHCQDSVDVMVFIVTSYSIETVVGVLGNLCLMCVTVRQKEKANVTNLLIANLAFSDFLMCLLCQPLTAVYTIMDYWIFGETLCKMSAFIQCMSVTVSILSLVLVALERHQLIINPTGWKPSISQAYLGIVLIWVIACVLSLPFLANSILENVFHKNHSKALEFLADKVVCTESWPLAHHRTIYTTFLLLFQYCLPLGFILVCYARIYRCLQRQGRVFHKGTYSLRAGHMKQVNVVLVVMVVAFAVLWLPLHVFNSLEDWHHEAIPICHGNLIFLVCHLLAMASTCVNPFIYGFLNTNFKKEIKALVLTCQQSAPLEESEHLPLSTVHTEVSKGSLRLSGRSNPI

B1: C. elegans Gαq/z5 (other)
chain: MACCLSEEAREQKRINQEIEKQLQRDKRNARRELKLLLLGTGESGKSTFIKQMRIIHGQGYSEEDKRAHIRLVYQNVFMAIQSMIRAMDTLDIKFGNESEELQEKAAVVREVDFESVTSFEEPYVSYIKELWEDSGIQECYDRRREYQLTDSAKYYLSDLRRLAVPDYLPTEQDILRVRVPTTGIIEYPFDLEQIIFRMVDVGGQRSERRKWIHCFENVTSIMFLVALSEYDQVLVECDNENRMEESKALFRTIITYPWFTNSSVILFLNKKDLLEEKILYSHLADYFPEYDGPPRDPIAAREFILKMFVDLNPDADKIIYSHFTCATDTENIRFVFAAVKDTILQHNLKYIGLC
Regarding B1, the “max Ca2+ signal, COS-7, FLIPR; 100 µM dopamine” value in test [1] is 4830 fluorescence units. Also, the “max Ca2+ signal, COS-7, FLIPR; agonist GAL” value (from here on “max Ca2+ signal … agonist GAL”) in test [2] worked out at 7650 fluorescence units; in [12], 5470 fluorescence units. In test [3], the “max Ca2+ signal, COS-7, FLIPR; agonist U-69593” value stood at 5980 fluorescence units. For the same molecule, the “max Ca2+ signal, COS-7, FLIPR; agonist PP” value (“max Ca2+ signal … agonist PP” below) stood at 3660 fluorescence units in [4] and 9420 fluorescence units in [10]. The “max Ca2+ signal, COS-7, FLIPR; agonist NPFF” value (from here on “max Ca2+ signal … agonist NPFF”) in [5] is 6590 fluorescence units. Besides, the figures for the “max Ca2+ signal, COS-7, FLIPR; agonist 5HT” value (“max Ca2+ signal … agonist 5HT” for short) in test [6], in test [7] and in test [8] were 2000 fluorescence units, 414 fluorescence units and 265 fluorescence units, respectively. The “max Ca2+ signal, COS-7, FLIPR; agonist GLP-1” value in test [9] was found to be 131 fluorescence units. In addition, the “max Ca2+ signal, COS-7, FLIPR; agonist DA” value (“max Ca2+ signal … agonist DA” below) in test [11] was 12100 fluorescence units.

B2: C. elegans Gαq/z9 (other)
chain: MACCLSEEAREQKRINQEIEKQLQRDKRNARRELKLLLLGTGESGKSTFIKQMRIIHGQGYSEEDKRAHIRLVYQNVFMAIQSMIRAMDTLDIKFGNESEELQEKAAVVREVDFESVTSFEEPYVSYIKELWEDSGIQECYDRRREYQLTDSAKYYLSDLRRLAVPDYLPTEQDILRVRVPTTGIIEYPFDLEQIIFRMVDVGGQRSERRKWIHCFENVTSIMFLVALSEYDQVLVECDNENRMEESKALFRTIITYPWFTNSSVILFLNKKDLLEEKILYSHLADYFPEYDGPPRDPIAAREFILKMFVDLNPDADKIIYSHFTCATDTENIRFVFAAVKDTILQNNLKYIGLC
B2: the “max Ca2+ signal … agonist GAL” value in test [2] was found to be 8490 fluorescence units; in [12] it was 4900 fluorescence units. The “max Ca2+ signal, COS-7, FLIPR; agonist U-69593” value in test [3] stood at 3470 fluorescence units. The entries for the “max Ca2+ signal … agonist PP” value in test [4] and in test [10] were 2580 fluorescence units and 7400 fluorescence units, respectively. The “max Ca2+ signal … agonist NPFF” value in test [5] amounted to 2970 fluorescence units. For the same molecule, the “max Ca2+ signal … agonist 5HT” value in [6] came to 3140 fluorescence units; in test [7], 504 fluorescence units; in test [8] it was 443 fluorescence units. In addition, the “max Ca2+ signal, COS-7, FLIPR; agonist GLP-1” value in [9] amounted to 135 fluorescence units. Also, the “max Ca2+ signal … agonist DA” value in [11] came out at 13100 fluorescence units.

B3: Human Gαq/z5 (Ala→Ser substitution at position 171) (other)
chain: MTLESIMACCLSEEAKEARRINDEIERQLRRDKRDARRELKLLLLGTGESGKSTFIKQMRIIHGSGYSDEDKRGFTKLVYQNIFTAMQAMIRAMDTLKIPYKYEHNKAHAQLVREVDVEKVSAFENPYVDAIKSLWNDPGIQECYDRRREYQLSDSTKYYLNDLDRVADPSYLPTQQDVLRVRVPTTGIIEYPFDLQSVIFRMVDVGGQRSERRKWIHCFENVTSIMFLVALSEYDQVLVESDNENRMEESKALFRTIITYPWFQNSSVILFLNKKDLLEEKIMYSHLVDYFPEYDGPQRDAQAAREFILKMFVDLNPDSDKIIYSHFTCATDTENIRFVFAAVKDTILQLNLKYIGLC
Turning to B3, the “max Ca2+ signal, COS-7, FLIPR; 100 µM dopamine” value in test [1] amounted to 0 fluorescence units. The “max Ca2+ signal … agonist GAL” value in test [2] turned out to be 4060 fluorescence units; in test [12] it was 5990 fluorescence units. For the same molecule, the “max Ca2+ signal, COS-7, FLIPR; agonist U-69593” value in test [3] was 7860 fluorescence units. For the same molecule, the “max Ca2+ signal … agonist PP” value in test [4] was 4390 fluorescence units; in [10] it was 9970 fluorescence units. Besides, in [5], the “max Ca2+ signal … agonist NPFF” value came to 4720 fluorescence units. Besides, the “max Ca2+ signal … agonist 5HT” value was determined as 478 fluorescence units in test [6], 316 fluorescence units in test [7] and 251 fluorescence units in test [8]. In addition, the “max Ca2+ signal, COS-7, FLIPR; agonist GLP-1” value in test [9] turned out to be 287 fluorescence units. For the same molecule, the “max Ca2+ signal … agonist DA” value in test [11] turned out to be 0 fluorescence units.

The record behind these values is patent US7067277 (H LUNDBECK A S, dated 2006).
